According to the supplement of paper PMC12855868:

B1: library; numbered along this chain (parent)
chain: MAAAGGARLLRAASAVLGGPAGRWLHHAGSRAGSSGLLRNRGPGGSAEASRSLSVSARARSSSEDKITVHFINRDGETLTTKGKVGDSLLDVVVENNLDIDGFGACEGTLACSTCHLIFEDHIYEKLDAITDEENDMLDLAYGLTDRSRLGCQICLTKSMDNMTVRVPETVADARQSIDVGKTS

Variants of: B1
Experiment: scaled log2 fold change in cell abundance, elesclomol vs control (0 = silent mean, 1 = nonsense mean) (scaled log2 ratio); higher = higher viability under elesclomol (loss of FDX1 cuproptosis function)
Conditions: glucose 10 mM
Method: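 Deep mutational scan of full-length human FDX1: a pooled saturation-mutagenesis ORF library (every residue 2-184 mutated to all 19 amino acids plus stop, and silent codons where available) was expressed by lentivirus in FDX1-knockout ABC1 (14 days) or HEK293T (11 days) cells grown with elesclomol (ES) or DMSO control. Variant abundance came from ORF sequencing. The log2 fold change (ES vs control, mean of duplicates) was centred on the silent-variant mean (0) and scaled to the nonsense-variant mean (1). Higher values mean greater viability under ES, i.e. loss of FDX1 function in cuproptosis.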

[1] = with ABC1 FDX1 KO, elesclomol 5 nM, 14 days
[2] = with HEK293T FDX1 KO, elesclomol 40 nM, 11 days
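Also: variant abundance is its share of total variant reads in each endpoint sample, from next-generation sequencing of the integrated ORF PCR-amplified out of genomic DNA.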

Row | Variant | scaled log2 fold change [1] | scaled log2 fold change [2]
1 | T78W | -0.127 | -0.938
2 | T78M | -0.54 | -0.0932
3 | N73D | 0.282 | -0.23
4 | N73K | 0.136 | 1.39
5 | N73T | -0.183 | –
6 | N73M | -0.526 | 0.0726
7 | N73L | -0.0741 | 0.0359
8 | N73Y | 0.218 | -0.741
9 | N73W | -0.0509 | –
10 | N73E | 0.311 | 0.823
11 | N73Q | -0.00176 | 0.207
12 | N73C | -0.441 | -0.308
13 | N73I | -1.24 | –
14 | N73H | -0.0805 | -0.159
15 | N73P | 0.17 | -0.147
16 | N73V | 0.102 | 0.976
17 | N73R | 0.219 | -0.254
18 | N73G | 0.582 | 0.401
19 | N73A | 0.491 | -0.233
20 | N73S | 0.237 | –
21 | N73F | 0.238 | -0.334
22 | D75F | -0.548 | 0.355
23 | D75W | 0.241 | -0.146
24 | D75Q | 0.457 | –
25 | D75M | -0.0398 | -0.59

Row | Variant | scaled log2 fold change [1] | scaled log2 fold change [2]
26 | D75C | -0.0427 | -0.175
27 | D75A | -0.423 | 0.113
28 | D75K | -0.678 | –
29 | D75Y | -0.306 | –
30 | D75T | -0.752 | 0.0498
31 | D75N | -0.329 | 0.364
32 | D75H | 0.273 | –
33 | D75I | -0.502 | -0.38
34 | D75L | 0.0705 | -0.00446
35 | D75R | -0.271 | -0.0753
36 | D75V | -0.11 | -0.372
37 | D75E | 0.271 | 0.128
38 | D75S | -0.0315 | –
39 | T80W | 0.177 | 0.805
40 | T80F | 0.473 | -0.712
41 | T80S | -0.407 | –
42 | T80C | 0.0285 | -0.291
43 | T80H | 0.295 | –
44 | T80E | 0.301 | -0.0351
45 | T80L | -0.289 | -0.147
46 | T80Y | 0.26 | -0.203
47 | T80A | -0.231 | –
48 | T80Q | -0.0848 | 0.379
49 | T80G | 0.0761 | -0.279
50 | T80N | 0.128 | –

Row | Variant | scaled log2 fold change [1] | scaled log2 fold change [2]
51 | T80R | -0.0268 | -0.512
52 | T80M | 0.0647 | –
53 | T80I | 0.231 | 0.056
54 | T80P | 0.231 | -0.0181
55 | T80V | 0.126 | -0.0679
56 | T80K | 0.183 | -0.131
57 | T80D | -0.0431 | -0.13
58 | E77N | 0.0389 | -0.504
59 | E77H | -0.0496 | -0.0091
60 | E77W | 0.139 | 0.815
61 | E77R | -0.178 | -0.307
62 | E77A | 0.306 | 1.06
63 | E77P | 0.108 | –
64 | E77S | -0.974 | 0.00555
65 | E77V | -0.145 | -0.226
66 | E77Y | 0.514 | -0.542
67 | E77K | 0.242 | -0.341
68 | E77C | -0.00193 | -0.0101
69 | E77G | 0.311 | -0.306
70 | E77Q | -0.0695 | 0.00586
71 | E77T | -1.24 | -0.154
72 | E77I | -0.922 | -0.714
73 | E77M | -0.575 | -0.139
74 | E77F | -0.642 | 0.94
75 | E77L | 0.262 | 0.144

Row | Variant | scaled log2 fold change [1] | scaled log2 fold change [2]
76 | E77D | -0.61 | -0.9
77 | L79C | 0.0853 | -0.242
78 | L79A | 0.253 | 0.232
79 | L79Y | -0.343 | 0.278
80 | L79F | 0.0893 | -0.166
81 | L79T | -0.0538 | –
82 | L79V | 0.047 | 1.39
83 | L79R | -0.538 | -0.117
84 | L79P | 0.634 | 0.299
85 | L79S | 0.0141 | –
86 | L79D | 0.287 | -0.0667
87 | L79N | 0.26 | 0.247
88 | L79W | -0.0916 | 0.138
89 | L79E | 0.0989 | -0.00345
90 | L79I | -0.0225 | -0.761
91 | L79Q | -0.224 | -0.128
92 | L79H | -0.594 | 0.119
93 | L79K | 0.0188 | 0.977
94 | L79M | -0.15 | -0.649
95 | L79G | 0.145 | 1.18
96 | K84S | 0.112 | 0.32
97 | K84E | 0.218 | -0.39
98 | K84T | -0.0915 | -0.906
99 | K84Y | -0.449 | 0.782
100 | K84G | -0.452 | -0.00112

Row | Variant | scaled log2 fold change [1] | scaled log2 fold change [2]
101 | K84C | 0.225 | 0.851
102 | K84R | -0.138 | -0.784
103 | K84D | -0.0908 | 0.0439
104 | K84P | 0.11 | 1.21
105 | K84M | 0.138 | –
106 | K84I | 0.197 | 1.03
107 | K84V | 0.289 | -0.902
108 | K84L | 0.349 | -0.439
109 | K84H | 0.0255 | 0.273
110 | K84N | 0.0469 | 0.28
111 | K84Q | 0.0208 | -0.794
112 | K84A | -0.0494 | 0.375
113 | K84F | 0.195 | 0.127
114 | K84W | 0.191 | -0.16
115 | V85I | -0.161 | -0.597
116 | V85C | -0.197 | -0.0853
117 | V85D | 0.12 | -0.189
118 | V85H | -0.166 | -0.307
119 | V85E | -0.055 | -0.248
120 | V85F | 0.217 | 1.05
121 | V85G | 0.265 | 0.288
122 | V85A | 0.0788 | -0.325
